Data: paper PMC10123111

Tested on: HaloTag-JF635-DDB2 (human)
Test: single-molecule binding (optical tweezers, confocal)
Conditions: with eGFP-DDB1; from kon and koff; corrected lifetime 39.0 s; UV-C photoproducts (CPD and 6-4PP), random positions; Nuclear extracts in LUMICKS C-trap flow cell, lambda DNA tethered at about 10 pN; buffer, salt, pH and temperature not given in the material

UV-damaged lambda DNA (40 J/m2)
Kd: 0.4 nM
